Test results as given in article PMC11649927.

Key:
Assay in all cases: cryo-EM structure; single-particle cryo-EM of S trimers in situ on PFA-fixed, concentrated virions; C3 symmetry for the 3-closed-RBD maps, focused classification for 1-open-RBD trimers
[1] = biological target: SARS-CoV-2 spike (S) protein of the B.1 variant (B.1.238), on virions (SARS-CoV-2)
[2] = biological target: SARS-CoV-2 spike (S) protein of the Gamma variant (P.1), on virions (SARS-CoV-2)
[3] = biological target: SARS-CoV-2 spike (S) protein of the Alpha variant (B.1.1.7), on virions (SARS-CoV-2)
[4] = biological target: SARS-CoV-2 spike (S) protein of the Mu variant (B.1.621), on virions (SARS-CoV-2)
[5] = biological target: SARS-CoV-2 spike (S) protein of the Delta variant (B.1.617.2), on virions (SARS-CoV-2)

Substance: SARS-CoV-2 spike (S) protein of the B.1 variant (B.1.238), on virions (natural protein)
- stoichiometry N [1]: 3

Substance: SARS-CoV-2 spike (S) protein of the Gamma variant (P.1), on virions (natural protein)
- stoichiometry N [2]: 3

Substance: SARS-CoV-2 spike (S) protein of the Alpha variant (B.1.1.7), on virions (natural protein)
- stoichiometry N [3]: 3

Substance: SARS-CoV-2 spike (S) protein of the Mu variant (B.1.621), on virions (natural protein)
- stoichiometry N [4]: 3

Substance: SARS-CoV-2 spike (S) protein of the Delta variant (B.1.617.2), on virions (natural protein)
- stoichiometry N [5]: 3
